# Laboratory results reported in paper doi:10.1101/2023.07.17.549284.
# Target: ndufs4^-/- complex I (N-module plus QP subcomplex) (mouse (endogenous in heart and kidney)) (UniProt Q91YT0)
# Experiment: cryo-EM structure
# Sequence of assembly factor NDUFAF2 (natural protein) (Q59J78 whole entry): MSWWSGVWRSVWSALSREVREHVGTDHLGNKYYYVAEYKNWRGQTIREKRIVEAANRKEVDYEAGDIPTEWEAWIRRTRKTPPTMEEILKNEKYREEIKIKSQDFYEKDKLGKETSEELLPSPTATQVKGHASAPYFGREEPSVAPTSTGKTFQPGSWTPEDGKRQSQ
substance,measurement,value
assembly factor NDUFAF2 (natural protein),percent of particles that contain NDUFAF2,14%
